Data on 3 variants can be found in IntAct's records for PubMed 31402609.

The labels stand for the following.
B1: Palmitoyltransferase ZDHHC5 (Homo sapiens), Q9C0B5 (parent)
chain: MPAESGKRFKPSKYVPVSAAAIFLVGATTLFFAFTCPGLSLYVSPAVPIYNAIMFLFVLANFSMATFMDPGIFPRAEEDEDKEDDFRAPLYKTVEIKGIQVRMKWCATCRFYRPPRCSHCSVCDNCVEEFDHHCPWVNNCIGRRNYRYFFLFLLSLTAHIMGVFGFGLLYVLYHIEELSGVRTAVTMAVMCVAGLFFIPVAGLTGFHVVLVARGRTTNEQVTGKFRGGVNPFTNGCCNNVSRVLCSSPAPRYLGRPKKEKTIVIRPPFLRPEVSDGQITVKIMDNGIQGELRRTKSKGSLEITESQSADAEPPPPPKPDLSRYTGLRTHLGLATNEDSSLLAKDSPPTPTMYKYRPGYSSSSTSAAMPHSSSAKLSRGDSLKEPTSIAESSRHPSYRSEPSLEPESFRSPTFGKSFHFDPLSSGSRSSSLKSAQGTGFELGQLQSIRSEGTTSTSYKSLANQTRNGSLSYDSLLTPSDSPDFESVQAGPEPDPPLGYTSPFLSARLAQQREAERHPRLVPTGPTHREPSPVRYDNLSRHIVASLQEREKLLRQSPPLPGREEEPGLGDSGIQSTPGSGHAPRTSSSSDDSKRSPLGKTPLGRPAVPRFGKPDGLRGRGVGSPEPGPTAPYLGRSMSYSSQKAQPGVSETEEVALQPLLTPKDEVQLKTTYSKSNGQPKSLGSASPGPGQPPLSSPTRGGVKKVSGVGGTTYEISV
partner: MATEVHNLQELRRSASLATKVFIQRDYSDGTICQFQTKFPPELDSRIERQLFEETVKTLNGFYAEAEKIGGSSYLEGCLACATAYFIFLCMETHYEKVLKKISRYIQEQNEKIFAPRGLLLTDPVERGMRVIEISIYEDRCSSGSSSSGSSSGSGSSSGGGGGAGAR
B2: Golgin subfamily A member 7B (Homo sapiens), Q2TAP0 (parent)
chain: B1 partner

Variants of B1 are the subject of test [1]. The conditions noted are these: with gog7b_human GOLGA7B, Q2TAP0.
In test [2] the parent is B1. The conditions noted are these: with gog7b_human GOLGA7B, Q2TAP0. The source holds these as a separate data set.
Test [3] covers variants of B2. The conditions noted are these: with zdhc5_human ZDHHC5, Q9C0B5.
Variants of B2 are the subject of test [4]. The conditions noted are these: with zdhc5_human ZDHHC5, Q9C0B5. This is another data set of the same source.

For the variant C236A;C237A;C245A, the “effect of a mutation on the interaction” value in test [1] is recorded as “disrupting interaction strength”.

Turning to C134S, the “effect of a mutation on the interaction” value was “with no effect” in test [1] and “decreasing interaction strength” in test [2].

As to MATEVHNLQELRRSASLATKVFIQRDYSDGTIAQFQTKFPPELDSRIERQLFEETVKTLNGFYAEAEKIGGSSYLEGALAAATAYFIFLAMETHYEKVLKKISRYIQEQNEKIFAPRGLLLTDPVERGMRVIEISIYEDRASSGSSSSGSSSGSGSSSGGGGGAGAR [C33A;C78A;C81A;C90A;C141A], the “effect of a mutation on the interaction” value was “with no effect” in test [3] and “disrupting interaction strength” in test [4].
